Test results: US20200063132A1

Biological target: human Mannose 6-Phosphate Receptor (M6PR, also known as IGF2R), endogenous on HUVEC and hCMEC/D3 cells (human) (UniProt P11717)
Assay: cell-based or functional assay

Chain of human Mannose 6-Phosphate Receptor (M6PR, also known as IGF2R), endogenous on HUVEC and hCMEC/D3 cells (human) (P11717 41-2491): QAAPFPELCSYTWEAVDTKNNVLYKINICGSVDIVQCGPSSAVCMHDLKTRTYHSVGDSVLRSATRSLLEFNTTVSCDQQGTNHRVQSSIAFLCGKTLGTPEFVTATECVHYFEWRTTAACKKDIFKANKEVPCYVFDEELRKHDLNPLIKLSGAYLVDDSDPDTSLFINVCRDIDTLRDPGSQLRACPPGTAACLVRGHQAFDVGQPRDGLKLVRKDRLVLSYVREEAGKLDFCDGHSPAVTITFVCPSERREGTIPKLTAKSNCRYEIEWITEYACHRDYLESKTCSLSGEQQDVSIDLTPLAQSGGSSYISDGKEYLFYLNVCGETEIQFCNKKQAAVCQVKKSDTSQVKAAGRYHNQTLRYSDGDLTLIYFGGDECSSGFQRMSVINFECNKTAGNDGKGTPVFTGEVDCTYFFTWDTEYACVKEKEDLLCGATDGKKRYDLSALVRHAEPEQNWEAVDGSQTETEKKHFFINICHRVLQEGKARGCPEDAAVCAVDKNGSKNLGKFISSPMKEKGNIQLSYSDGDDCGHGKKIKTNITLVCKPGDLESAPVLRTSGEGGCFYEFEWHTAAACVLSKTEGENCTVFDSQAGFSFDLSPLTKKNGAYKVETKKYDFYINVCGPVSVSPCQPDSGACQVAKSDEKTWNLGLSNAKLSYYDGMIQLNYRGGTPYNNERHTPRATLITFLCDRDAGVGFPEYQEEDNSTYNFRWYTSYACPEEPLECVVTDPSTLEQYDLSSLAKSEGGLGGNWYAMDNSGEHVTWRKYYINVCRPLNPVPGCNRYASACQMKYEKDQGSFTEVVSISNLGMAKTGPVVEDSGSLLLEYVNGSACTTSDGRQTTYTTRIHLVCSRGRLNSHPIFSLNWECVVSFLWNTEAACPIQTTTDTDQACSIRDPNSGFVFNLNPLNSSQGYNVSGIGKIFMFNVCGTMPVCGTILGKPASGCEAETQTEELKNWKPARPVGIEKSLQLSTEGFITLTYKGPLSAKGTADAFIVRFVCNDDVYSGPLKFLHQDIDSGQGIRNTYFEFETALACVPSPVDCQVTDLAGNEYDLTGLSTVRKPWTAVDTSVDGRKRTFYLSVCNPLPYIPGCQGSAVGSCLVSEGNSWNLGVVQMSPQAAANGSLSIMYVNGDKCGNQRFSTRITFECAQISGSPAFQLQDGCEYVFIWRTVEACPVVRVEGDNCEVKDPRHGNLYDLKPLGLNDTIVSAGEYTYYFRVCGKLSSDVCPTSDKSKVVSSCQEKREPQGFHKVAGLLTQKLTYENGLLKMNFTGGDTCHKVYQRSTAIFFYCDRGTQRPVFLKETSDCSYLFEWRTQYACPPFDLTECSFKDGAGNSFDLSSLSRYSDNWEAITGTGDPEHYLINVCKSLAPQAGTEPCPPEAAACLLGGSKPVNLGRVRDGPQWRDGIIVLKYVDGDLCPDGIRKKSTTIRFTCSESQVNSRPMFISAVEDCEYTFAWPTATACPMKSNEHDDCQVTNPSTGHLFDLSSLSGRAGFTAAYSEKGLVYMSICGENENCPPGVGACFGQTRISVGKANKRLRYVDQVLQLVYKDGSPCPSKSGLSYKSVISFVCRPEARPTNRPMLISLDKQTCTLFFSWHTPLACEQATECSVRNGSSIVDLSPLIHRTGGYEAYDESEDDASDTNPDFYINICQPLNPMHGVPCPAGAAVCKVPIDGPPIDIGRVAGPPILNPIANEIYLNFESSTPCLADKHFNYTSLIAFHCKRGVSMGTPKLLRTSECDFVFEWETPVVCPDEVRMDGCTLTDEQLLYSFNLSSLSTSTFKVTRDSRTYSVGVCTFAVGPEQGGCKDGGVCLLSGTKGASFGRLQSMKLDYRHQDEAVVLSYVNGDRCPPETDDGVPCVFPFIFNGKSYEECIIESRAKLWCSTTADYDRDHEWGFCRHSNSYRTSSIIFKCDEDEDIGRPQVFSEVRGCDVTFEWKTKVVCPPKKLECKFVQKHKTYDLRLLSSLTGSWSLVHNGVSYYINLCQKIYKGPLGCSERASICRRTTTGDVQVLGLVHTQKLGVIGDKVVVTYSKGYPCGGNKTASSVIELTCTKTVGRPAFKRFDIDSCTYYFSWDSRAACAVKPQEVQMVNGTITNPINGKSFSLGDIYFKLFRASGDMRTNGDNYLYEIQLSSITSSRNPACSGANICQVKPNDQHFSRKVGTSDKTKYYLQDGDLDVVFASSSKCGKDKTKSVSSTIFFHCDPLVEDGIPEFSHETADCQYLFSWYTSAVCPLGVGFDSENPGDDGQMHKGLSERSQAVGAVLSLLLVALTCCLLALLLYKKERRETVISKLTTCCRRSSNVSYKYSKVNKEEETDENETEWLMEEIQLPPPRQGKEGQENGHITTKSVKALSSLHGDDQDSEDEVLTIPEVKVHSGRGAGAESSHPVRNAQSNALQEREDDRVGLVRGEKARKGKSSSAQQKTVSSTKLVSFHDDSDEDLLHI

IC50 of the M6P inhibitor (mannose 6-phosphate, a small molecule) on uptake of IDUA-myc by HUVEC, 1 h, intracellular IDUA activity: 348 µM | IC50 of the M6P inhibitor (mannose 6-phosphate, a small molecule) on uptake of IDUA-myc by hCMEC/D3 cells, 1 h, intracellular IDUA activity: 57.2 µM
Substance: IDUA-myc fusion protein (human α-L-iduronidase with myc tag, from conditioned medium of HEK 293-based cells stably overexpressing human IDUA cDNA) (from UniProt P35475 28-653) (enzyme)
